Experimental data: patent US5935840A, “Activated recombinant adenovirus proteinases” (priority 1995, dated 1999)

Assays:
[1] = system: Ad2 proteinase (rEP protein); assay type: biochemical, human adenovirus type 2; conditions: disrupted H2ts1 virus treated with DNase prior to the assay, plus recombinant proteinase
From the text: (§1) The nature of the proteinase cofactor(s) was pursued with the aid of the second assay, which utilizes the substrate (Leu-Arg-Gly-Gly-NH)2 -rhodamine. The design of this substrate was based on two facts. (1) It was known that the proteinase present in disrupted Ad2 virions would cleave small peptides with sequence similar to that found at natural cleavage sites in adenovirus virion precursors (Webster et al., 1989). (2) Cleavage of either tetra-peptide sequence from the substituted rhodamine substrate produces a very large increase, up to a 3500-fold, in fluorescence. Under conditions where only a small fraction of the rhodamine substrate is cleaved, the increase in fluorescence is proportional to the amount of proteinase present and to the time of incubation. Thus, the fluorescence assay provides a quantitative method for assessing proteinase activity that is more sensitive convenient and rapid than the gel electrophoresis assay.
(§2) After determining the identity of the two cofactors, reconstitution of adenovirus proteinase activity in vitro with purified components was accomplished. […] In (a), Assays in 1 ml contained 1.2 nM rEP protein, 11.9 pM Ad2 DNA and the indicated concentrations of pVI-c peptide. The rate of substrate hydrolysis is the rate in the reaction minus the rate with the rEP protein and Ad2 DNA alone which was 0.068 pmol min^-1. In (b), Assays in 1 ml contained 1.2 nM rEP protein, 36 nM pVI-c peptide and the indicated concentrations of Ad2 DNA. The rate of substrate hydrolysis is the rate in the reaction minus the rate with the rEP protein and pVI-c alone which was 2.76 pmol min^-1. The concentration of (Leu-Arg-Gly-Gly-NH)2 -rhodamine was 5 μM, and its rate of hydrolysis to Leu-Arg-Gly-Gly-NH-rhodamine was determined by measuring the increase in fluorescence every 3 minutes for 15 minutes. The pVI-c peptide was assembled in a peptide synthesizer.
(§3) Assays were performed in 400 μl of Assay Buffer (50 mM Tris-HCl, pH 7.4, 25 mM NaCl, 10 mM octylglucoside, and 1 mM dithiothreitol). The concentration of the fluorogenic substrate, (Leu-Arg-Gly-Gly-NH)2 -rhodamine was 5 μM. When present, the number of disrupted virus particles was 10^10 and the amount of recombinant proteinase was 0.12 mAU280 nm. […] After 30 minutes at 37° C., a 360 μl aliquot of the reaction was added to 340 μl of Assay Buffer minus octylglucoside, and the increase in fluorescence was measured. The excitation wavelength was 492 nm and the emission wavelength was 523 nm, both with a bandwidth of 5 nm. The change in fluorescence, ΔF, is the magnitude of the fluorescence from the sample minus the magnitude of the fluorescence from an identical solution without enzyme.
(§4) DNase-treated disrupted virus was obtained by incubating 2×10^10 disrupted virions in 20 μl containing 0.1M NaAc, pH 5.0, 5 mM MgCl2, and 55 μg/ml DNase I for 4 minutes at 25° C. Then, EDTA to 23 mM and dithiothreitol to 2.3 mM were added, and the reactions were heated at 56° C. for 1 minute to inactivate the DNase.
(§5) For the assays shown in FIG. 8, the DNase reactions were diluted by the addition of 380 μl Assay Buffer containing the substrate, the proteinase and either 2×10^10 molecules of Ad2 DNA (+) or no DNA (-). After 30 minutes at 37° C., 360 μl of the reactions were added to 340 μl Assay Buffer minus octylglucoside and the increase in fluorescence was measured. The assays in (B) and (C) were identical to those in (A) except that in (B) H2ts1 virus was added after the DNase was inactivated (i-DNase) and in (C) no Dnase was present. In (D) recombinant proteinase plus 10^10 molecules of Ad2 DNA were preincubated for 10 minutes at 37° C. before adding substrate.
(§6) .dagger. All assays contained 8.3 nM rEP protein, 98 nM pVIc peptide, and
(§7) 1 μM (Leu--Arg--Gly--Gly--NH)2rhodamine. The rate of substrate

[2] = molecular target: T1, recombinant Ad2 proteinase (Human adenovirus C serotype 2, UniProt P03252); assay: Cofactor activity in HEP1DBP cleavage by recombinant Ad2 proteinase; assay type: biochemical, human adenovirus type 2; conditions: peptide mixed with recombinant Ad2 proteinase and Ad2 DNA
T1 construct: also expresses the wild-type 204-amino acid EP polypeptide; made in house; host or cells: E. coli BL21(DE3)
Method: When purified HEP1DBP was incubated with disrupted wild-type adenovirus 2 virions, it was cleaved, as determined from the change in its mobility during SDS-polyacrylamide gel electrophoresis. No cleavage was observed when incubation was with disrupted H2ts1 virions alone.
To determine if the Ad12 carboxy-terminal fragment of pVI functioned as the EP co-factor, the corresponding synthetic peptide was mixed with recombinant Ad2 proteinase and Ad2 DNA, and incubated with the HEP1DBP substrate.

[3] = Stability/sensitivity of the peptide cofactor; assay type: physicochemical; conditions: boiling for 5 minutes
[4] = molecular target: T2, Ad2 proteinase (rEP protein) (Human adenovirus C serotype 2, UniProt P03252); assay type: biochemical, human adenovirus type 2; conditions: 1.2 nM rEP protein, 36 nM pVI-c peptide, no DNA, 5 μM substrate, 1 ml
T2 construct: Plasmid pT7AD23k6 contains the 204 codons of the Ad2 proteinase reading frame plus a translational termination codon; made in house; host or cells: E. coli BL21(DE3)
From the text: as §1, §2, §3, §4, §5, §6, §7

[5] = system: (Leu-Arg-Gly-Gly-NH)2 -rhodamine; assay: Fluorescence assay of proteinase activity of virus and recombinant proteinase preparations; assay type: biochemical; conditions: about 5% pure, from Sf9 cells; Ad2 DNA and H2ts1 virions to provide cofactor
From the text: as §1
as §3, with “The concentration of the fluorogenic substrate, (Leu-Arg-Gly-Gly-NH)2 -rhodamine was 5 μM.” left out
Disrupted virus was obtained as follows: Twice CsCl-banded virus was dialyzed against 10 mM Tris-HCl, pH 8.0, 1mM EDTA and centrifuged at 100,000×g for 1 hour. The pellet was suspended in 10 mM Tris-HCl, pH 6.8, containing 20% (v/v) glycerol and, after three 10 second bursts of sonication, was stored at -20° C. The fluorogenic substrate was synthesized and purified at BNL by Dr. Walter Mangel, using methods similar to those previously described by Dr. Mangel. These methods are described in two U.S. Patents (U.S. Pat. No. 4,557,862 entitled "Rhodamine derivatives as fluorogenic substrates for proteinases" by Mangel, W. F., Leytus, S., and L. Helhado; issued Dec. 10, 1985; U.S. patent application Ser. No. 780,552; "Novel rhodamine derivatives as fluorogenic substrates" by Mangel, W. F., Leytus, S., and L. Helhado; filing date Sep. 24, 1985) and in other publications by Mangel and co-workers.

[6] = system: Ad2 major core protein precursor, pVII; assay: Assay of adenovirus proteinase activity in crude extracts: cleavage of [35S]-methionine-labeled pVII (SDS-PAGE, autoradiography); assay type: biochemical, adenovirus type 2; conditions: purified from baculovirus-infected Sf9 insect cells

T2 sequence (P03252 whole entry): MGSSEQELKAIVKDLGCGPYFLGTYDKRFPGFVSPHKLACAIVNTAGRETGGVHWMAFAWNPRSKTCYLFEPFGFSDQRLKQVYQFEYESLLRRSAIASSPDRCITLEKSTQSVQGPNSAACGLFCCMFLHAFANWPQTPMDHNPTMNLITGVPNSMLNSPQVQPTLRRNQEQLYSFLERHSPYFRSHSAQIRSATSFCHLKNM
T1 sequence (P03252 whole entry): as above

## DNase
[1]
  Proteinase activity lost relative to untreated H2ts1 virus: 94%

## GVQSLHRRRCF [pVI-c peptide]
[2]
  Cleavage of the HEP1DBP substrate: Rapid and complete cleavage
[3]
  Heat stability of cofactor activity: did not irreversibly denature
[4]
  Rate of substrate hydrolysis with the rEP protein and pVI-c alone: 2.76 pmol min^-1

## vNPVAd2EP: recombinant Ad2 proteinase expressed in Sf9 insect cells from baculovirus vector vNPVAd2EP
[5]
  Specific activity: equivalent to that of bacterially-produced proteinase
[6]
  Activity in the crude extract assay: active
